Measured values published in paper PMC5466808.
Several values for one entry are separate records, joined by “and”; a condition that tells them apart may be missing. Equal values may be shown once. Read-outs that look alike come from different tables or passages of the source.

Legend:
[1] = biological target: full length human G208C NFU1 (human) (UniProt Q9UMS0); test: AUC
[2] = biological target: full length human G208C NFU1 (human) (UniProt Q9UMS0); test: AUC; remark: listed apart in the source

- percent dimer (with 1 mM TCEP) [1]: 60%
- percent dimer (without TCEP) [1]: 58%
- percent higher order oligomer (with 1 mM TCEP) [1]: 1.5%
- percent higher order oligomer (without TCEP) [1]: 6%
- percent monomer (with 1 mM TCEP) [1]: 30%
- percent monomer (without TCEP) [1]: 29%
- stoichiometry N [1]: 2
- percent dimer (holo protein) [2]: 65.6%
- stoichiometry N [2]: 2 and 4
Substance: full length human G208C NFU1 (from UniProt Q9UMS0 10-254) (natural protein)
